Source: patent publication US20230137562A1, “TAU AGGREGATION INHIBITORS” (priority 2017, published 2023)
Where “and” joins values, the source holds several entries; their conditions need not be identical. Equal entries are not always repeated. Square brackets hold non-standard residues; d marks the D form. Ends that are not written are not given here. NMeI = CC[C@H](C)[C@H](NC)C(=O)O; hArg = N=C(N)NCCCC[C@H](N)C(=O)O; Orn = NCCC[C@H](N)C(=O)O

Molecular target: T1, Ac-VQIINK-NH2
T1 peptide: Ac-VQIINK-NH2
Experiment: cell-based or functional assay

WRIWIRYR and IRIRWRW are within 1.5-fold of each other in “IC50 (µM), VQIINK Inhibition (ThT)” value: 3.33 µM for the first, 4.86 µM for the second.

WRIWLWYR and IRIWVW are within 1.5-fold of each other in “IC50 (µM), VQIINK Inhibition (ThT)” value: 2.7 µM for the first, 2.43 µM for the second.

Going from WRIRLYWR to WRIWIREW, the “IC50 (µM), VQIINK Inhibition (ThT)” value rises from 2.12 µM to 3.96 µM (1.9-fold).

Compared with WIRIRYW, WIRYWIRW is 3.4-fold lower in “IC50 (µM), VQIINK Inhibition (ThT)” value: 6.02 µM for the first, 1.78 µM for the second.

First: RIWLRVW
Second: IRWRIRW
The “IC50 (µM), VQIINK Inhibition (ThT)” value of the first is 2.4-fold lower: 4.09 µM for the first, 9.77 µM for the second.

First: RWWIRIRYW
Second: RIWIRYW
The “IC50 (µM), VQIINK Inhibition (ThT)” value of the first is 1.8-fold lower: 2.76 µM for the first, 4.87 µM for the second.

First: WRARIRW
Second: RIRIWLW
The “IC50 (µM), VQIINK Inhibition (ThT)” value of the first is 3-fold higher: 5.77 µM for the first, 1.93 µM for the second.

WRIHIRW and FRIRIHHW are within 1.5-fold of each other in “IC50 (µM), VQIINK Inhibition (ThT)” value: 1.47 µM for the first, 1.08 µM for the second.

IRLIVW and RRIRIRW are within 1.5-fold of each other in “IC50 (µM), VQIINK Inhibition (ThT)” value: 3.01 µM for the first, 4.29 µM for the second.

WRIWIRW and WRLRLRW are within 1.5-fold of each other in “IC50 (µM), VQIINK Inhibition (ThT)” value: 2.73 µM for the first, 2.22 µM for the second.

RIALYWW and IWIRYWWR are within 1.5-fold of each other in “IC50 (µM), VQIINK Inhibition (ThT)” value: 2.39 µM for the first, 2.01 µM for the second.

Going from LRIWIRYL to WRIRIRW, the “IC50 (µM), VQIINK Inhibition (ThT)” value rises from 1.74 µM to 2.96 µM (1.7-fold).

First: WRIRIRR
Second: IRLWLW
The “IC50 (µM), VQIINK Inhibition (ThT)” value of the first is 27-fold higher: 34.1 µM for the first, 1.27 µM for the second.

First: WRIHIRYW
Second: WKVQVRLW
The “IC50 (µM), VQIINK Inhibition (ThT)” value of the first is 2.3-fold higher: 3.17 µM for the first, 1.35 µM for the second.

Going from FRIKLRW to HRIRIRW, the “IC50 (µM), VQIINK Inhibition (ThT)” value rises from 2.38 µM to 9.07 µM (3.8-fold).

WRIWIRYW and WIRLYWRW are within 1.5-fold of each other in “IC50 (µM), VQIINK Inhibition (ThT)” value: 1.89 µM for the first, 1.86 µM for the second.

WYRLRIRW and WIRYWWRI are within 1.5-fold of each other in “IC50 (µM), VQIINK Inhibition (ThT)” value: 2.36 µM for the first, 2.8 µM for the second.

RIRIWIW and W[hArg]I[hArg]L[hArg]W [W(hR)I(hR)L(hR)W] are within 1.5-fold of each other in “IC50 (µM), VQIINK Inhibition (ThT)” value: 2.38 µM for the first, 2.52 µM for the second.

WRIRIWYW and IWIRYWRW are within 1.5-fold of each other in “IC50 (µM), VQIINK Inhibition (ThT)” value: 2.43 µM for the first, 2.15 µM for the second.

With RIWLWYR the “IC50 (µM), VQIINK Inhibition (ThT)” value was 4.27 µM and 5.47 µM.

molecular target: His-Tau40P301L Tau (UniProt P10636-8 1-441); experiment: cell-based or functional assay
Sequence (P10636 other isoform, or with tags, fused parts or gaps limits assumed): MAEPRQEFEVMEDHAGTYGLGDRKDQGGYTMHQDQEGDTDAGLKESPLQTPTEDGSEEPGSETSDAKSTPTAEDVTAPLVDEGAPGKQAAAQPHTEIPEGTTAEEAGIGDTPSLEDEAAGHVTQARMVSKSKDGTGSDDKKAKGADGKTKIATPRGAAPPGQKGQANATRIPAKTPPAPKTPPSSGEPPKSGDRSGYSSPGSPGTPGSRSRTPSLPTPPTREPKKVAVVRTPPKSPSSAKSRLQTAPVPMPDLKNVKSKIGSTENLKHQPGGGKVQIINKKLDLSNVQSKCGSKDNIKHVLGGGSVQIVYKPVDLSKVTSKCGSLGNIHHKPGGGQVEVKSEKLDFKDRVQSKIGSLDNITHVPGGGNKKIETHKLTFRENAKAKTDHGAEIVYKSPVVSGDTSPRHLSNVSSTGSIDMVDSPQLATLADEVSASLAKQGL

Compared with LRIWIRYW, WRIWIRYR is 1.5-fold higher in “IC50 (µM), Tau40 assay (ThT)” value: 1.71 µM for the first, 2.64 µM for the second.

IRIRWRW and WRIRLYWR are within 1.5-fold of each other in “IC50 (µM), Tau40 assay (ThT)” value: 2.78 µM for the first, 3.1 µM for the second.

Going from WRIWLYWR to WRIWIREW, the “IC50 (µM), Tau40 assay (ThT)” value rises from 1.69 µM to 2.76 µM (1.6-fold).

WIRIRYW and FRIWIRYW are within 1.5-fold of each other in “IC50 (µM), Tau40 assay (ThT)” value: 2.6 µM for the first, 2.12 µM for the second.

Going from RIRLYIW to RIWIYWFR, the “IC50 (µM), Tau40 assay (ThT)” value falls from 2.12 µM to 0.55 µM (3.9-fold).

WIRYWIRW and RIRIWRW are within 1.5-fold of each other in “IC50 (µM), Tau40 assay (ThT)” value: 2.42 µM for the first, 2.39 µM for the second.

Compared with IRWRIRW, WRILIRYW is 5.2-fold higher in “IC50 (µM), Tau40 assay (ThT)” value: 2.82 µM for the first, 14.6 µM for the second.

RWWIRIRYW and RIWIRYW are within 1.5-fold of each other in “IC50 (µM), Tau40 assay (ThT)” value: 2.54 µM for the first, 2.42 µM for the second.

Compared with YRIRLRY, WRARIRW is 3.4-fold higher in “IC50 (µM), Tau40 assay (ThT)” value: 1.08 µM for the first, 3.7 µM for the second.

WRIHIRW and FRIRIHHW are within 1.5-fold of each other in “IC50 (µM), Tau40 assay (ThT)” value: 3.09 µM for the first, 3.2 µM for the second.

Going from RRIRIRW to WRLRLRW, the “IC50 (µM), Tau40 assay (ThT)” value falls from 2.88 µM to 0.23 µM (13-fold).

RIALYWW and IWIRYWWR are within 1.5-fold of each other in “IC50 (µM), Tau40 assay (ThT)” value: 3.54 µM for the first, 2.44 µM for the second.

HWKIIWYR and LRIWIRYL are within 1.5-fold of each other in “IC50 (µM), Tau40 assay (ThT)” value: 2.39 µM for the first, 2.66 µM for the second.

Compared with W[Orn]I[Orn]I[Orn]W [WOIOIOW], WRIRIRR is 2.7-fold higher in “IC50 (µM), Tau40 assay (ThT)” value: 1.17 µM for the first, 3.15 µM for the second.

WRIHIRYW and RIWLWYR are within 1.5-fold of each other in “IC50 (µM), Tau40 assay (ThT)” value: 3.76 µM for the first, 2.73 µM for the second.

FRIKLRW and HRIRIRW are within 1.5-fold of each other in “IC50 (µM), Tau40 assay (ThT)” value: 2.6 µM for the first, 3.28 µM for the second.

First: WR[NMeI]RIRW [WR(NMe)IRIRW]
Second: WIRYWWRI
The “IC50 (µM), Tau40 assay (ThT)” value of the first is 2.5-fold lower: 1.48 µM for the first, 3.69 µM for the second.

RIWIRYWW and RIRLYWW are within 1.5-fold of each other in “IC50 (µM), Tau40 assay (ThT)” value: 2.28 µM for the first, 1.74 µM for the second.

First: W[hArg]I[hArg]L[hArg]W [W(hR)I(hR)L(hR)W]
Second: WRIRIWYW
The “IC50 (µM), Tau40 assay (ThT)” value of the first is 4-fold higher: 3.39 µM for the first, 0.85 µM for the second.

IWIRYWRW was tested, and the “IC50 (µM), Tau40 assay (ThT)” value was 2.73 µM.

For WRVWGWVRW, the “IC50 (µM), Tau40 assay (ThT)” value was 1.81 µM and 1.85 µM.
WRIRLRGW was tested, and the “IC50 (µM), Tau40 assay (ThT)” value was 1.74 µM and 1.91 µM.
For WRIWIRW, the “IC50 (µM), Tau40 assay (ThT)” value was 2.98 µM and 2.1 µM and 2.11 µM.
In the case of WRIRIRW, the “IC50 (µM), Tau40 assay (ThT)” value is reported as 0.9 µM and 0.84 µM.
For WKVQVRLW, the “IC50 (µM), Tau40 assay (ThT)” value was 2.4 µM and 2.31 µM.
For LWWIRIRYW, the “IC50 (µM), Tau40 assay (ThT)” value was 1.59 µM and 1.8 µM.
WIRLYWRW was tested, and the “IC50 (µM), Tau40 assay (ThT)” value was 2.42 µM and 2.38 µM.
WWIRIRYWH was tested, and the “IC50 (µM), Tau40 assay (ThT)” value was 2.16 µM and 2.3 µM.
For WYRLRIRW, the “IC50 (µM), Tau40 assay (ThT)” value was 0.86 µM and 0.97 µM.
In the case of RIRIWIW, the “IC50 (µM), Tau40 assay (ThT)” value is reported as 0.84 µM and 1.38 µM.
